Consider 1 molecule from publication PMC11417404, “The molecular mechanism for TERRA recruitment and annealing to telomeres”.

The data set concerns the target RAD51 (UniProt Q06609 1-339). Put plainly: EMSA; 1 mM Mg2+, 1 mM ATP; highest affinity, unbound band gone at lowest RAD51 (1.5 uM); RAD51 EMSA: 50 mM Tris-HCl pH 7.5, 50 mM KCl, 1 mM MgCl2, 1 mM ATP, 37 C 10 min; 0.8% TBE agarose + 10 mM KCl at 4 C. Single molecule: T50 (10 mM Tris-HCl pH 7.5, 50 mM NaCl); imaging 10 mM Tris-HCl pH 7.5, 100 mM NaCl, 10% glycerol. Supplementary Table 2 kd values are for TERRA/DNA annealing to (protein-bound) duplex, not …. The following applies: protein: recombinant; label: Cy3; G4, single strand. In general terms: In EMSA bound probe runs differently from free probe, usually more slowly.

Sequence of RAD51 (Q06609 whole entry): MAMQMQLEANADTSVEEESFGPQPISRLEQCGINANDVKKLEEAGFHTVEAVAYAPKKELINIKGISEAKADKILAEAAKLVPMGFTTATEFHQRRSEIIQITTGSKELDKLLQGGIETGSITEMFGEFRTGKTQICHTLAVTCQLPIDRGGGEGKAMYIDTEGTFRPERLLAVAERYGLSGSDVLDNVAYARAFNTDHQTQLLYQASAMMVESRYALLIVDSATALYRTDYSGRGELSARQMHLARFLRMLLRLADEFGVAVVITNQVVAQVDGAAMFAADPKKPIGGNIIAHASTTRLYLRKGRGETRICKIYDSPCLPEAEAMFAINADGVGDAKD

Turning to UGGCGACGGCAGCGAGGCUUAGGGUUAGGGUUAGGGUUAGGG (structured_RNA) [TERRA-18], the binding result is “binds”.
